Test results: US20240101675A1 (BIOLOJIC DESIGN, published 2024)

T1: IL-4 (Homo sapiens (Human), UniProt P05112 25-153)
T1 sequence: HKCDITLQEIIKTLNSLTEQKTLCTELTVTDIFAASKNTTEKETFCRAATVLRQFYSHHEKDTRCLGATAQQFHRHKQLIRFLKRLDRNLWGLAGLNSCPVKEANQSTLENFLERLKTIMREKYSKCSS

T2: recombinant human OX40 tagged with histidine tag (hOX40-His) (human, UniProt P43489 29-216)
T2 construct: bought (Reprokine); also called hOX-His; not shown: histidine tag
T2 sequence (looked up): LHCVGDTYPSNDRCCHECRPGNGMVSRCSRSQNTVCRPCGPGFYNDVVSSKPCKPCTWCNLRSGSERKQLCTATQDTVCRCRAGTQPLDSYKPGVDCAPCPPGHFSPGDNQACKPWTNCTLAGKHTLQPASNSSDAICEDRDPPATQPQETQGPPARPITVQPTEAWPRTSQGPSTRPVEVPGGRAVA


Tests used:
[1] = molecular target: T3, hTSLP-His (ACRO biosystems cat: TSP-H52Hb) (human, UniProt Q969D9 29-159, limits assumed); test: competition ELISA: hTSLP-His pre-mixed with soluble TSLP-R as competitor, plate coated with TSLP-R-Fc
T3 construct: bought; not shown: His tag

[2] = molecular target: T3, hTSLP-His (ACRO biosystems cat: …); test: blocking ELISA: competitor mixed with 3 nM hTSLP-His, then on a plate coated with TSLP-R-Fc; bound hTSLP-His by anti-His-HRP
recombinant human IL-13 [3] = molecular target: T4, recombinant human IL-13 (human, UniProt P35225 35-146); test: cell-based or functional assay
T4 sequence (P35225 35-146 limits assumed): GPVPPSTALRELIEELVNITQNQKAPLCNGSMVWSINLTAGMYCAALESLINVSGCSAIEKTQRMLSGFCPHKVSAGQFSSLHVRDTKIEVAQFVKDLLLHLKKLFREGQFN

[4] = molecular target: T3, hTSLP-His (ACRO biosystems cat: …); test: cell-based or functional assay
human TSLP = molecular target: T5, human TSLP (human, UniProt Q969D9 29-159); test: ELISA, ligand coated, IgG titrated 1 to 1000 nM
T5 construct: also called hTSLP; h-TSLP

[5] = molecular target: T6, recombinant cynomolgus monkey IL-13 (cynomolgus monkey, UniProt Q0PW92 21-132); test: ELISA, ligand coated, IgG titrated 1 to 1000 nM
T6 construct: also called rc-IL-13; cIL-13
T6 sequence (Q0PW92 entry or part of it): as the sequence (P35225 35-146 limits assumed) above, with G1S, R10K, M42V, S67N, H83R, L100V counted along it

cynomolgus monkey TSLP = molecular target: T7, cynomolgus monkey TSLP (cynomolgus monkey, UniProt A0A7N9CAT7 29-159); test: ELISA, ligand coated, IgG titrated 1 to 1000 nM
T7 construct: also called cTSLP; cyno-TSLP
T7 sequence (A0A7N9CAT7 entry or part of it): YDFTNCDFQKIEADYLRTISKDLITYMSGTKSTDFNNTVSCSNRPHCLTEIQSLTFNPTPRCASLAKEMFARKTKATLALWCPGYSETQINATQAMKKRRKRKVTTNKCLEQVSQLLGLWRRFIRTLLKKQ

recombinant human IL-13 [6] = molecular target: T4, recombinant human IL-13; test: SPR (BIAcore T200), IgG captured, hIL-13 as analyte 20 to 0.6 nM
[7] = molecular target: T3, hTSLP-His (ACRO biosystems cat: …); test: competition ELISA: 3 nM hTSLP-His pre-mixed with IgG, plate coated with TSLP-R-Fc
IL-4 = molecular target: T1, IL-4; test: specificity ELISA: plate coated with 250 ng ligand, 100 nM IgG, anti-human Fc-HRP
[8] = molecular target: T8, IL-2 (specificity ELISA of Example 6) (Homo sapiens (Human), UniProt P60568 21-153); test: as above
T8 sequence (P60568 21-153 limits assumed): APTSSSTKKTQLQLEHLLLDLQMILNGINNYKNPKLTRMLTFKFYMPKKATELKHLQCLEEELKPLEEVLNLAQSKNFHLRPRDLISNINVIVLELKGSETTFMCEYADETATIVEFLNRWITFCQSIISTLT

BSA = BSA (UniProt P02769 25-607); test: as above
Sequence of BSA (P02769 25-607 limits assumed): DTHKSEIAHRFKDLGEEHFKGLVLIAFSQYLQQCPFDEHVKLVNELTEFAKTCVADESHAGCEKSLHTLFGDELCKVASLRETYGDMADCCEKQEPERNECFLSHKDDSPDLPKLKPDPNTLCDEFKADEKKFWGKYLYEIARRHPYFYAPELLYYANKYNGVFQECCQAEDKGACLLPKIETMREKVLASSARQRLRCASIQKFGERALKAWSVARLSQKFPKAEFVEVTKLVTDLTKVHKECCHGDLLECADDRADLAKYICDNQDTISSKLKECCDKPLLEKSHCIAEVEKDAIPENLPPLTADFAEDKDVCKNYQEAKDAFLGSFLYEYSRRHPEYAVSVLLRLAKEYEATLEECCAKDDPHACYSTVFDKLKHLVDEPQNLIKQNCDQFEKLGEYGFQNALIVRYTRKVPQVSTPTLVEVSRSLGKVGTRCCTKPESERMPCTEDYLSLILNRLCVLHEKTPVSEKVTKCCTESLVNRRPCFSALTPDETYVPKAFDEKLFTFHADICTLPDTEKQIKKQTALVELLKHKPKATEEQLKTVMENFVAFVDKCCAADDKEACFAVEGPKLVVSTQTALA

[9] = molecular target: T8, IL-2 (specificity ELISA of Example 6); test: specificity ELISA, ligand coated
recombinant human IL-13 [10] = molecular target: T4, recombinant human IL-13; test: cell-based or functional assay; remark: listed apart in the source
[11] = molecular target: T9, recombinant human PD-1 tagged with histidine tag (hPD-1-His) (human, UniProt Q15116 25-167, limits assumed); test: yeast surface display scFv, flow cytometry, 30 nM hPD-1-His
T9 construct: bought (Reprokine); not shown: histidine tag
T9 sequence (Q15116 25-167 limits assumed): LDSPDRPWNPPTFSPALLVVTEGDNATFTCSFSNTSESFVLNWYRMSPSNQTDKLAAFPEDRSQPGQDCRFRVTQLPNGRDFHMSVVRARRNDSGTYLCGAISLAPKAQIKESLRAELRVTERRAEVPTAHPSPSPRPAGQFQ

[12] = molecular target: T2, recombinant human OX40 tagged with …; test: yeast surface display scFv, flow cytometry, 90 nM hOX40-His

Row | IC50 [1] | IC50 (read off the curve) [2] | IC50, inhibition of IL-13 signaling cascade in HEK-Blue IL-4/IL-13 cells (recombinant human IL-13 [3]) | IC50, inhibition of TSLP dependent pSTAT5 activation in MUTZ5 cells [4] | EC50 (human TSLP) | EC50 [5] | EC50 (cynomolgus monkey TSLP) | Kd (recombinant human IL-13 [6]) | koff (recombinant human IL-13 [6]) | kon (recombinant human IL-13 [6]) | IC50 [7] | binding result [9] | IC50 (read off the curve); HEK-Blue IL-4/IL-13 STAT6-SEAP reporter with 0.4 nM rh-IL-13, OD 620 (recombinant human IL-13 [10]) | binding result [11] | binding result [12] | Binder | binding result (IL-4) | binding result [8] | binding result (BSA)
1 | 3 nM | ~3 nM | – | – | – | – | – | – | – | – | – | – | – | – | – | TSLP-R-Fc tag (ACRO biosystems TSR-H525a) (Fc fusion, UniProt Q9HC73 23-231, looked up, bought; also called TSLP receptor; not shown: Fc tag) QGGAAEGVQIQIIYFNLETVQVTWNASKYSRTNLTFHYRFNGDEAYDQCTNYLLQEGHTSGCLLDAEQRDDILYFSIRNGTHPVFTASRWMVYYLKPSSPKHVRFSWHQDAVTVTCSDLSYGDLLYEVQYRSPFDTEWQSKQENTCNVTIEGLDAEKCYSFWVRVKAMEDVYGPDTYPSDWSEVTCWQRGEIRDACAETPTPPKPKLSK | – | – | –
2 | – | – | 1.3 nM | 13 pM | 2.5 nM | 7.1 nM | 8.2 nM | 3.65 nM | 0.0157 s⁻¹ | 4.31e+06 M⁻¹ s⁻¹ | 0.41 nM | – | – | – | – | BDG33.023 (antibody, human IgG1, V domains shown, IgG (human IgG1 format, symmetrical IgG); also called BGD33.023; BGD33.0023) VH: QMQLVESGGGVVQPGRSLRLSCAASGFAFRTYGMHWVRQAPGKGLEWVAVIWYDGSNTHYADSVKGRFTITRDNSKNTLNLQMNSLRAEDTAVYYCARAPQWYLSAEAFDLWGQGTMVTVSS VL: SYVLTQPPSVSVAPGQTARITCGGNLIGSKLVHWYQQKPGQAPVLVVYDDSDRPSRIPERFSGSNSGNTATLTISRVEAGDEADYYCQVWDHSSDHVVFGGGTKLTVL | no binding (tested: 100 nM IgG (not on the sheet)) | no binding (tested: 100 nM IgG (not on the sheet)) | no binding (tested: 100 nM IgG (not on the sheet))
3 | – | – | 25 nM | – | 12.8 nM | 1.5 nM | 148 nM | 0.903 nM | 0.0036 s⁻¹ | 4.07e+06 M⁻¹ s⁻¹ | – | no binding (tested: 100 nM IgG) | ~20 nM | – | – | BDG33.025 (antibody, human IgG1, V domains shown, IgG (human IgG1 format, symmetrical IgG); also called BGD33.025; BDG33.0025) VH: QMQLVESGGGVVQPGRSLRLSCAASGFTFRTYGMHWVRQAPGKGLEWVADIWYDGSNKHYADSVKGRFTITRDNSKNTLNLQMNSLRAEDTAVYYCARAPQWYLVAEPFDLWGQGTMVTVSS VL: SYVLTQPPSVSVAPGQTARITCGGNLIGSKLVHWYQQKPGQAPVLVVYDDSDRPSLIPERFSGSNSGNTATLTISRVEAGDEADYYCQVWDSSSDGVVFGGGTKLTVL | – | – | no binding (tested: 100 nM IgG (not on the sheet))
4 | – | – | – | – | – | – | – | – | – | – | – | – | – | binds | binds | 3212ACOXC81 (OX40 library) (scFv, V domains shown, not shown: linker) VH: QVQLVESGGGVVQPGRSLRLDCKASGIDFSNSGMHWVRQAPGKGLEWVAVIWYDGSTRYYADSVKGRFTISRDNSKNTLFLQMNSLRAEDTAVYYCATNDDYWGQGTLVTVSS VL: EIVLTQSPATLSLSPGERATLSCRASQSVIHYLAWYQQKPGQAPRLLIYDASNRATGIPARFSGSGSGTDFTLTISSLEPEDFAVYYCQQYDNWPLTFGQGTKVEIK | – | – | –
